Numbering of substitutions follows the chain as printed.

Assay [1] deals with human EGFR, C-terminal eGFP-tagged, on CHO-K1 cells (human, UniProt P00533 25-1210). The experiment in a line: cell-based or functional assay.
In assay [2] the target is EGFR on HeLa cells (UniProt P00533 25-1210, limits assumed). The experiment in a line: cell-based or functional assay.

B1: GOMP001_bsAb_050 (bispecific antibody, human IgG1, kappa, L234A L235A)
heavy 1: QVQLVESGGGVVQPGRSLRLSCAASGFTFSTYGMHWVRYAPGKGLEWVAVIWYDGSHKYYADRVKGRFTISRDNSKKTLYLQMNSLRAEDTGIYYCARTGISGNMSYFYFDHWGRGILVTVSSASTKGPSVFPLAPSSKSTSGGTAALGCLVKDYFPEPVTVSWNSGALTSGVHTFPAVLQSSGLYSLSSVVTVPSSSLGTQTYICNVNHKPSNTKVDKKVEPKSCDKTHTCPPCPAPEAAGGPSVFLFPPKPKDTLMISRTPEVTCVVVDVSHEDPEVKFNWYVDGVEVHNAKTKPREEQYNSTYRVVSVLTVLHQDWLNGKEYKCKVSNKALPAPIEKTISKAKGQPRRPRVYTLPPSREEMTKNQVSLVCLVKGFYPSDIAVEWESNGQPENNYKTTPPVLDSDGSFFLYSVLTVDKSRWQQGNVFSCSVMHEALHNHYTQKSLSLSPG
light 1: not shown
heavy 2: QVQLVQSGAEVKKPGASVKVSCKASGYTFTSHWMHWVRYAPGQGLEWIGEFNPSNGRTNYNEKFKSKATMTVDTSTNTAYMELSSLRSEDTAVYYCASRDYDYDGRYFDYWGRGTLVTVSSASTKGPSVFPLAPSSKSTSGGTAALGCLVKDYFPEPVTVSWNSGALTSGVHTFPAVLQSSGLYSLSSVVTVPSSSLGTQTYICNVNHKPSNTKVDKKVEPKSCDKTHTCPPCPAPEAAGGPSVFLFPPKPKDTLMISRTPEVTCVVVDVSHEDPEVKFNWYVDGVEVHNAKTKPREEQYNSTYRVVSVLTVLHQDWLNGKEYKCKVSNKALPAPIEKTISKAKGQPRRPRVYTLPPSREEMTKNQVSLVCLVKGFYPSDIAVEWESNGQPENNYKTTPPVLDSDGSFFLYSVLTVDKSRWQQGNVFSCSVMHEALHNHYTQKSLSLSPG
light 2: DIQMTQSPSSLSASVGDRVTITCSASSSVTYMYWYQRKPGDAPKLLIYDTSNLASGVPSRFSGSGSGTDYTFTISSLQPEDIATYYCQQWSSHIFTFGQGTKVEIKRTVAAPSVFIFPPSDEQLKSGTASVVCLLNNFYPREAKVQWKVDNALQSGNSQESVTEQDSKDSTYSLSSTLTLSKADYEKHKVYACEVTHQGLSSPVTKSFNRGEC
In the case of B1, in assay [1], the “EC50 CHO-K1 EGFR Low (nM); T cell activation bioassay, luciferase” value (from here on “EC50 CHO-K1 EGFR Low (nM)”) came out at 1.67 nM and the “EC50 CHO-K1 EGFR Med (nM); T cell activation bioassay, luciferase” value (“EC50 CHO-K1 EGFR Med (nM)” for short) turned out to be 0.0606 nM.

B2: GOMP001_bsAb_056 (bispecific antibody, human IgG1, kappa, L234A L235A)
heavy 1: EVNLVESGGGLVQPGRSLRLSCAASGFTFDDYTMHWVRYVPGKGLEWVSNISWNSGSLGYADRVKGRFTISRDNAKDSLYLQMNSLRVEDTALYYCAKDSSGYGHYNSYYMDVWGRGTTVTVSSASTKGPSVFPLAPSSKSTSGGTAALGCLVKDYFPEPVTVSWNSGALTSGVHTFPAVLQSSGLYSLSSVVTVPSSSLGTQTYICNVNHKPSNTKVDKKVEPKSCDKTHTCPPCPAPEAAGGPSVFLFPPKPKDTLMISRTPEVTCVVVDVSHEDPEVKFNWYVDGVEVHNAKTKPREEQYNSTYRVVSVLTVLHQDWLNGKEYKCKVSNKALPAPIEKTISKAKGQPRRPRVYTLPPSREEMTKNQVSLVCLVKGFYPSDIAVEWESNGQPENNYKTTPPVLDSDGSFFLYSVLTVDKSRWQQGNVFSCSVMHEALHNHYTQKSLSLSPG
light 1: DIQMTQSPSSLSASVGDRVTITCRASQSIRNYLNWYQRKPGDAPKVLIYSASSLQSGVPSRFSGSGSGTDFTLTISSLQPEDFASFYCQQTYSTPITFGQGTRLEIKRTVAAPSVFIFPPSDEQLKSGTASVVCLLNNFYPREAKVQWKVDNALQSGNSQESVTEQDSKDSTYSLSSTLTLSKADYEKHKVYACEVTHQGLSSPVTKSFNRGEC
heavy 2: B1 heavy 2
light 2: B1 light 2
As for B2, in assay [1], the “EC50 CHO-K1 EGFR Low (nM)” value stood at 0.0291 nM and the “EC50 CHO-K1 EGFR Med (nM)” value amounted to 0.00412 nM.

B3: GOMP001_bsAb_055 (bispecific antibody, human IgG1, kappa, L234A L235A)
heavy 1: QVQLVQSGAEVKKPGASVKVSCKASGYTFTSHWMHWVRKAPGQGLEWIGEFNPSNGRTNYNEEFKSKATMTVDTSTNTAYMELSSLRSEDTAVYYCASRDYDYDGRYFDYWGQGTLVTVSSASTKGPSVFPLAPSSKSTSGGTAALGCLVADYFPEPVTVSWNSGALTSGVHTFPAVLQSSGLYSLSSVVTVPSSSLGTQTYICNVNHKPSNTKVDEKVEPKSCDKTHTCPPCPAPEAAGGPSVFLFPPKPKDTLMISRTPEVTCVVVDVSHEDPEVKFNWYVDGVEVHNAKTKPREEQYNSTYRVVSVLTVLHQDWLNGKEYKCKVSNKALPAPIEKTISKAKGQPREPQVYTLPPSREEMTDNQVSLTCLVKGFYPSDIAVEWESNGQPENNYKTTPPVLMSDGSFFLASKLTVDKSRWQQGNVFSCSVMHEALHNHYTQKSLSLSPG
light 1: B1 light 2 with D1R, R37D, D41K, E122K, S130R
heavy 2: B2 heavy 1
light 2: B2 light 1
Regarding B3, in assay [1], the “EC50 CHO-K1 EGFR Low (nM)” value came out at 0.119 nM and the “EC50 CHO-K1 EGFR Med (nM)” value is 0.0139 nM.

B4: GOMP001_bsAb_051 (bispecific antibody, human IgG1, kappa, L234A L235A)
heavy 1: B3 heavy 1
light 1: B1 light 2 with D1R, R37D, D41K, E122K, S130R
heavy 2: LRSDDTAVYYCARGVRGNYYYYYMDVWGRGTTVTVSSASTKGPSVFPLAPSSKSTSGGTAALGCLVKDYFPEPVTVSWNSGALTSGVHTFPAVLQSSGLYSLSSVVTVPSSSLGTQTYICNVNHKPSNTKVDKKVEPKSCDKTHTCPPCPAPEAAGGPSVFLFPPKPKDTLMISRTPEVTCVVVDVSHEDPEVKFNWYVDGVEVHNAKTKPREEQYNSTYRVVSVLTVLHQDWLNGKEYKCKVSNKALPAPIEKTISKAKGQPRRPRVYTLPPSREEMTKNQVSLVCLVKGFYPSDIAVEWESNGQPENNYKTTPPVLDSDGSFFLYSVLTVDKSRWQQGNVFSCSVMHEALHNHYTQKSLSLSPG
light 2: EIVLTQSPDFQSVTPKEKVTITCRASQSIGSKLHWYQRKPDDSPKLLIKYASQSFSGVPSRFSGSGSGTDFNLTINSLEAEDAATFYCHQSSGLPYTFGQGTKLEIKRTVAAPSVFIFPPSDEQLKSGTASVVCLLNNFYPREAKVQWKVDNALQSGNSQESVTEQDSKDSTYSLSSTLTLSKADYEKHKVYACEVTHQGLSSPVTKSFNRGEC
As for B4, in assay [1], the “EC50 CHO-K1 EGFR Low (nM)” value was 1.23 nM and the “EC50 CHO-K1 EGFR Med (nM)” value stood at 0.0922 nM.

B5: GOMP001_bsAb_011 (bispecific antibody, human IgG1, kappa, L234A L235A)
heavy 1: B3 heavy 1
light 1: B1 light 2 with D1R, R37D, D41K, E122K, S130R
heavy 2: EVQLVESGGGLVQPGGSLRLSCAASGFTLSSYTMNWVRYAPGKGLEWVSYISSSSRTIYYSDRVKGRFSISRDNAKNSLYLQMNSLRDEDTALYYCAREDYYDSSGFDNWGRGTLVTVSSASTKGPSVFPLAPSSKSTSGGTAALGCLVKDYFPEPVTVSWNSGALTSGVHTFPAVLQSSGLYSLSSVVTVPSSSLGTQTYICNVNHKPSNTKVDKKVEPKSCDKTHTCPPCPAPEAAGGPSVFLFPPKPKDTLMISRTPEVTCVVVDVSHEDPEVKFNWYVDGVEVHNAKTKPREEQYNSTYRVVSVLTVLHQDWLNGKEYKCKVSNKALPAPIEKTISKAKGQPRRPRVYTLPPSREEMTKNQVSLVCLVKGFYPSDIAVEWESNGQPENNYKTTPPVLDSDGSFFLYSVLTVDKSRWQQGNVFSCSVMHEALHNHYTQKSLSLSPG
light 2: DIRMTQSPSSFSASTGDRVTITCRASQGISSYLAWYQRKPGDAPKLLIYTASTLQSGVPSRFSGSGSGTDFTLTIRSLQSEDFATYYCQQYYSYPRTFGQGTKVEIKRTVAAPSVFIFPPSDEQLKSGTASVVCLLNNFYPREAKVQWKVDNALQSGNSQESVTEQDSKDSTYSLSSTLTLSKADYEKHKVYACEVTHQGLSSPVTKSFNRGEC
Regarding B5, in assay [2], the Max killing % is 77.8% and the “X… HeLa EC50” value stood at 0.0693 nM.

B6: GOMP001_bsAb_012 (bispecific antibody, human IgG1, kappa, L234A L235A)
heavy 1: EVQLVESGGGLVQPGGSLRLSCAASGFTLSSYTMNWVRKAPGKGLEWVSYISSSSRTIYYSDEVKGRFSISRDNAKNSLYLQMNSLRDEDTALYYCAREDYYDSSGFDNWGQGTLVTVSSASTKGPSVFPLAPSSKSTSGGTAALGCLVADYFPEPVTVSWNSGALTSGVHTFPAVLQSSGLYSLSSVVTVPSSSLGTQTYICNVNHKPSNTKVDEKVEPKSCDKTHTCPPCPAPEAAGGPSVFLFPPKPKDTLMISRTPEVTCVVVDVSHEDPEVKFNWYVDGVEVHNAKTKPREEQYNSTYRVVSVLTVLHQDWLNGKEYKCKVSNKALPAPIEKTISKAKGQPREPQVYTLPPSREEMTDNQVSLTCLVKGFYPSDIAVEWESNGQPENNYKTTPPVLMSDGSFFLASKLTVDKSRWQQGNVFSCSVMHEALHNHYTQKSLSLSPG
light 1: B5 light 2 with D1R, R38D, D42K, E123K, S131R
heavy 2: B1 heavy 2
light 2: B1 light 2
As to B6, in assay [2], the Max killing % was 93.3% and the “X… HeLa EC50” value was 0.0395 nM.
